According to patent publication US10562947B2, “Compositions and methods for preventing or treating diseases, conditions or processes characterized by aberrant fibroblast proliferation and extracellular matrix deposition” (MOERAE MATRIX, INC., priority 2011, dated 2020):
Where a SMILES comes first, the peptide text is derived from it.

Assays:
Assay in all cases: Kinase Profiling Assay
Format in all cases: biochemical
ULK3(h) = molecular target: T1, ULK3(h) (Homo sapiens, UniProt Q6PHR2); conditions: 100 μM peptide
T1 sequence (Q6PHR2 1-472): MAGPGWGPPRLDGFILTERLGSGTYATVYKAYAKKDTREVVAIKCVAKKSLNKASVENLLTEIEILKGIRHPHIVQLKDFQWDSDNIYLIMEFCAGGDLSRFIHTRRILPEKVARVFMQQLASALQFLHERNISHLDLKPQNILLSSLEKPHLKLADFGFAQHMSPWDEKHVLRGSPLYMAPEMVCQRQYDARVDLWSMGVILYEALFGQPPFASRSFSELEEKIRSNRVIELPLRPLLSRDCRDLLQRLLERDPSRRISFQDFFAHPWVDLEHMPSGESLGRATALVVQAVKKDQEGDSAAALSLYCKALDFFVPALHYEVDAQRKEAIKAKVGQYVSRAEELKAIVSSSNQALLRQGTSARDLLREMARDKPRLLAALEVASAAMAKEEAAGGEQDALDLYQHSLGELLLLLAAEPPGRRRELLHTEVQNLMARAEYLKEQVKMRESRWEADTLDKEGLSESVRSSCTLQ
Summary of the method: (§1)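 Off-target screen of MK2 peptide inhibitors, 266 human kinases, n = 2 per activity measurement.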

EGFR(L861Q)(h) = EGFR(L861Q)(h) (Homo sapiens, UniProt P00533, L861Q); conditions: 100 μM peptide
Summary of the method: as §1

DYRK2(h) = molecular target: T2, DYRK2(h) (Homo sapiens, UniProt Q92630); conditions: 100 μM peptide
T2 sequence (Q92630 1-601): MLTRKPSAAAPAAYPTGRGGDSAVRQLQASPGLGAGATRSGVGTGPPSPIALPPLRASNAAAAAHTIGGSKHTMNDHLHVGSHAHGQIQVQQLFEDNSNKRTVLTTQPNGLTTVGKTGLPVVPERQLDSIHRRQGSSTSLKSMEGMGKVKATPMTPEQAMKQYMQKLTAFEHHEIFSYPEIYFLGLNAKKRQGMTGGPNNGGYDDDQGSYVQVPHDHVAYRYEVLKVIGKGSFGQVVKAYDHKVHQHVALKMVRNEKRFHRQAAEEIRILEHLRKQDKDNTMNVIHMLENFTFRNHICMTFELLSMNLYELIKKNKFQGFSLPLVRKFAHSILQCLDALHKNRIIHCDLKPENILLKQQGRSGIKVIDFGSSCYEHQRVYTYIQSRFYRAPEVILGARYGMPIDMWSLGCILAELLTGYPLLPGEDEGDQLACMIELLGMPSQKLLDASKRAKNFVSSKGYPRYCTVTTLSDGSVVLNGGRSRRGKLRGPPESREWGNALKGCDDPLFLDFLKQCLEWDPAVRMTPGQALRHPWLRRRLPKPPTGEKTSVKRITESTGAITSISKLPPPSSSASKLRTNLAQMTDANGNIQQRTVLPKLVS
Summary of the method: as §1

MAPKAP-K2(h) = MAPKAP-K2(h) (Homo sapiens, UniProt P49137); conditions: for MAPKAP-K2(h) % activity: 100 μM peptide
Sequence of MAPKAP-K2(h) (P49137 whole entry): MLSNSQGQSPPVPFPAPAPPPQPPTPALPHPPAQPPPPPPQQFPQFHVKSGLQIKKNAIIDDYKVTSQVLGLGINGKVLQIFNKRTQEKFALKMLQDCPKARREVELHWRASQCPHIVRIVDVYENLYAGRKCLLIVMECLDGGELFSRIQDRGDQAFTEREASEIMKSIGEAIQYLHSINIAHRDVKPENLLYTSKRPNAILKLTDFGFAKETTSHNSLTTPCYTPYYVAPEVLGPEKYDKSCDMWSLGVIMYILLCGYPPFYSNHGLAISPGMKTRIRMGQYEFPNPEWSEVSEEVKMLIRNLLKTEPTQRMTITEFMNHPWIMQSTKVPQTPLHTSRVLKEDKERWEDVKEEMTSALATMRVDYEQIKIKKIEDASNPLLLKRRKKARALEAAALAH
Summary of the method: as §1

Rsk2(h) = molecular target: T3, Rsk2(h) (Homo sapiens, UniProt P51812); conditions: 100 μM peptide
T3 construct: purchased Millipore (IC50 Profiler Express service)
T3 sequence (P51812 whole entry): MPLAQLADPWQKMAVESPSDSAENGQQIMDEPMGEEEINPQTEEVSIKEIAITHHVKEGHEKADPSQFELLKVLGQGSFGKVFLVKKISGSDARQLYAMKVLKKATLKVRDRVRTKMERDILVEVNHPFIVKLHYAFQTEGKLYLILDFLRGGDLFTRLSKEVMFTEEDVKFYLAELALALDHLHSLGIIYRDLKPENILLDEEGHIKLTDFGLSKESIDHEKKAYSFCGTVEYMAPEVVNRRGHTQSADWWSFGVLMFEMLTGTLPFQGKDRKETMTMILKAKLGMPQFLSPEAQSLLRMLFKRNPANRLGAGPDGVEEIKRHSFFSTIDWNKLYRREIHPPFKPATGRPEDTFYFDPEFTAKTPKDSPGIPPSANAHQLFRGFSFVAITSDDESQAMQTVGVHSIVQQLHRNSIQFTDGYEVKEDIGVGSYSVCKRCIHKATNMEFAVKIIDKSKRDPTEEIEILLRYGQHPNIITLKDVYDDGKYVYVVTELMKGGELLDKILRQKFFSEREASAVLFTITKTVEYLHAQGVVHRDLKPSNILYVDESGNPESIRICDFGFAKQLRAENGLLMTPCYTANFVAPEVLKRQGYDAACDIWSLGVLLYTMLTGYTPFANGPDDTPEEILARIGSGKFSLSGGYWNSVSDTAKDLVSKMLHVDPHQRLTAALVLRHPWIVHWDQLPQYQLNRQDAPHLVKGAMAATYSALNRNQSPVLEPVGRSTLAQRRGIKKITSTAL
Summary of the method: as §1

PDGFRβ(h) = PDGFRβ(h) (Homo sapiens, UniProt P09619); conditions: 100 μM peptide
Sequence of PDGFRβ(h) (P09619 33-1106): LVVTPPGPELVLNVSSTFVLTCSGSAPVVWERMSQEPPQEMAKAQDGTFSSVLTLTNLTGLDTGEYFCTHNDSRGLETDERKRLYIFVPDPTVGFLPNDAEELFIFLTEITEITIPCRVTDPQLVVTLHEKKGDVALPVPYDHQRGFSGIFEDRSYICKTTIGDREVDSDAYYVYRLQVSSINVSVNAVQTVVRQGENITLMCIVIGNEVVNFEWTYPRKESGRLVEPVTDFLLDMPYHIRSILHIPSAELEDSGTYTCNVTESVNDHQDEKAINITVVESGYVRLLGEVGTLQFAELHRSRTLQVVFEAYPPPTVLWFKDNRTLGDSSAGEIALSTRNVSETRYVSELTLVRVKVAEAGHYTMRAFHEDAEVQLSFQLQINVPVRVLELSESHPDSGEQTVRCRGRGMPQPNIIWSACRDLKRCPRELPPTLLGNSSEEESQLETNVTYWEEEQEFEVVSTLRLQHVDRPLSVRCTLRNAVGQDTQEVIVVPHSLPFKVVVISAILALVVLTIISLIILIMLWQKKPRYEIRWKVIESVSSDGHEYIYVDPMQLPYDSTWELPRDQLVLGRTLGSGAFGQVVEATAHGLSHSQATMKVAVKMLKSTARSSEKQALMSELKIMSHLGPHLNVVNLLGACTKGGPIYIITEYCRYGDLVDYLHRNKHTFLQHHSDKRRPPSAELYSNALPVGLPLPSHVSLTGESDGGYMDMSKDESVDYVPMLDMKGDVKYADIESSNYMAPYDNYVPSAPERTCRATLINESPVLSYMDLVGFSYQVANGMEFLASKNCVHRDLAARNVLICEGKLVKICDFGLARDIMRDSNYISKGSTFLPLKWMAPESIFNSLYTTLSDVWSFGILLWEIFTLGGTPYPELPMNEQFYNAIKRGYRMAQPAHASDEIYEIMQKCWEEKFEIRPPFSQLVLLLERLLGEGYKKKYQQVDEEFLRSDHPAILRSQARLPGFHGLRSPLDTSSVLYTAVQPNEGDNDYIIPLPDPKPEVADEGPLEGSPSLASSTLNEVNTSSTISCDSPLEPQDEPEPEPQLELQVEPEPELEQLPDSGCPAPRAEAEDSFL
Summary of the method: as §1

PKCζ(h) = molecular target: T4, PKCζ(h) (Homo sapiens, UniProt Q05513); conditions: 100 μM peptide
T4 construct: purchased Millipore (IC50 Profiler Express service)
T4 sequence (Q05513 1-592): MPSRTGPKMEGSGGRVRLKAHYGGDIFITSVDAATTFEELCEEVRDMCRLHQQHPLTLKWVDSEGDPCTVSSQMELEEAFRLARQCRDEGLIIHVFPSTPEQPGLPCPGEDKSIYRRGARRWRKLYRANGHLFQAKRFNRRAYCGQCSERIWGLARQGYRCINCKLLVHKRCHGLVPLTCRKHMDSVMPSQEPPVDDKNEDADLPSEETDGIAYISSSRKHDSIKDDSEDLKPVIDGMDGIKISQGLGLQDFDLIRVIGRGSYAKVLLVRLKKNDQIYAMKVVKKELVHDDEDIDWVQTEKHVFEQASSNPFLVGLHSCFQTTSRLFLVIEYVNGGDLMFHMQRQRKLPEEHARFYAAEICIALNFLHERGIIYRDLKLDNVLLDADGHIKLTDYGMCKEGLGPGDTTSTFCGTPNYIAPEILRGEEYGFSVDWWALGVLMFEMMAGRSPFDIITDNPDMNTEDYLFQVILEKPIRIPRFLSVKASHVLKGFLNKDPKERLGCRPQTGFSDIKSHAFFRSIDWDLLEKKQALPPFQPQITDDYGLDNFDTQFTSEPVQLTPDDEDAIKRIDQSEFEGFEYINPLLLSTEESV
Summary of the method: as §1

DRAK1(h) = molecular target: T5, DRAK1(h) (Homo sapiens, UniProt Q9UEE5); conditions: 100 μM peptide
T5 sequence (Q9UEE5 1-414): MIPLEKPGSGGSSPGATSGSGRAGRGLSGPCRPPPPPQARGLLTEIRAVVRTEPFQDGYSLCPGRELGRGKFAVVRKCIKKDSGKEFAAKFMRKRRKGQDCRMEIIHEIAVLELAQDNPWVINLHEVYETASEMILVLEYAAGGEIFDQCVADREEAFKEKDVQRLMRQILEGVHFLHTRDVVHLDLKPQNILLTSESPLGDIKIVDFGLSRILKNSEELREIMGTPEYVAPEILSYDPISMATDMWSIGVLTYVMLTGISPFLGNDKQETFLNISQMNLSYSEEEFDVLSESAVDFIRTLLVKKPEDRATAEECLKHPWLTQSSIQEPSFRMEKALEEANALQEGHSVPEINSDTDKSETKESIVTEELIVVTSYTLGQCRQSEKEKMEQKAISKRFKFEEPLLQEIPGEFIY
Summary of the method: as §1

Row | Molecule | ULK3(h) % activity (ULK3(h)) [%] | EGFR(L861Q)(h) % activity (EGFR(L861Q)(h)) [%] | DYRK2(h) % activity (DYRK2(h)) [%] | MAPKAP-K2(h) % activity (MAPKAP-K2(h)) [%] | Rsk2(h) % activity (Rsk2(h)) [%] | PDGFRβ(h) % activity (PDGFRβ(h)) [%] | PKCζ(h) % activity (PKCζ(h)) [%] | DRAK1(h) % activity (DRAK1(h)) [%] | inhibition at 100 µM (MAPKAP-K2(h); read-out: inhibition of kinase activity of MK2) [%]
1 | KAFAKLAARLYRKALARQLGVAA [MMI-0400] | 147 | 22 | 195 | 5 | 38 | 53 | 75 | 14 | –
2 | CC(C)C[C@H](NC(=O)[C@H](C)NC(=O)[C@H](CCCCN)NC(=O)[C@H](C)NC(=O)[C@H](CCCNC(=N)N)NC(=O)[C@H](C)NC(=O)[C@H](CCC(N)=O)NC(=O)[C@H](CCCNC(=N)N)NC(=O)[C@H](C)NC(=O)[C@H](C)NC(=O)[C@H](C)NC(=O)[C@H](CCCNC(=N)N)NC(=O)[C@H](C)NC(=O)[C@@H](N)Cc1ccc(O)cc1)C(=O)N[C@@H](C)C(=O)N[C@@H](CCCNC(=N)N)C(=O)N[C@@H](CCC(N)=O)C(=O)N[C@@H](CC(C)C)C(=O)NCC(=O)N[C@H](C(=O)N[C@@H](C)C(=O)N[C@@H](C)C(=O)O)C(C)C [MMI-0100] (H-YARAAARQARAKALARQLGVAA-OH; N-terminus and C-terminus assumed) | – | – | – | – | – | – | – | – | > 65
3 | YARAAARQARAKALNRQLGVA (Mammalian) [MMI-0200] | 164 | 74 | 142 | 35 | 101 | 137 | 98 | 34 | –
4 | FAKLAARLYRKALARQLGVAA [MMI-0300] | 167 | 25 | 155 | 5 | 51 | 81 | 81 | 14 | –
5 | HRRIKAWLKKIKALARQLGVAA (Mammalian) [MMI-0500] | 177 | 15 | 127 | 9 | 14 | 40 | 7 | 8 | –
